Measurements as given in US8986682B2, “Method to increase the absorption of unsaturated fatty acids by human infants” (Swedish Orphan Biovitrum AB (publ), priority 2010, dated 2015).
Where “and” joins values, the source holds several entries; their conditions need not be identical. Identical values can stand only once. Marks after values point to notes of the source that are not given here.

Tested on: preterm infants born before week 32 of gestational age
Assay: Coefficient of fat absorption (CFA), fat balance of food and stool by gas chromatography, studies BVT.BSSL-020/-021
Format: in vivo, human
Design: Coefficient of Absorption of AA (C20:4 n-6), Minimum: concentration or dose not given beside the values
Conditions: for CFA (overall), LS Mean Difference (rhBSSL − Placebo) / CFA (overall), Maximum / CFA (overall), Mean (SD) / CFA (overall), Median / CFA (overall), Minimum: last 72 h of 7-day treatment
Protocol: Patients were randomized to infant formula/pasteurized breast milk supplemented with rhBSSL at a final concentration of 0.15 g/L, or to infant formula/pasteurized breast milk “supplemented” with sterile water for injection (as placebo) for the first 7 days. After a washout period of 2 days, the patient was “crossed over” to the other treatment regimen during a second 7-day treatment period. Collection of feces samples for CFA assessment were performed during the last 3 days (72 hours) of each treatment period.
The collection of feces for the determination of CFA was performed over a period corresponding to the fat, i.e., formula or milk, ingestion during 72 hours toward the end of each treatment period. Diapers supplied to each site were used for feces collection. During the two treatment periods, a carmine red tracer dye was given as a marker together with a meal (approximately at noon) on Day 4 and Day 13, respectively, and collection of stool commenced with the appearance of the first carmine red marker in the stool. The stool containing the first marker was collected and the date and time of the first stool collected was recorded on the CRF. At 72 hours following administration of the first red marker, the second carmine marker was given, and stool collection continued until the second carmine marker appeared. The stool containing the second marker was not collected, but the date and time of the appearance of the second marker was recorded on the CRF. Diapers were weighed before placement and after removal and the difference in weight was recorded on the CRF. The times of each collection and the elapsed duration of the entire collection period was also recorded on the CRF. The use of ointments for the treatment of skin irritation was prohibited during the stool collection period. Diapers were to be changed frequently during the collection period to keep the skin dry. Patients with skin rash severity leading to discontinuation of the stool collection were to be withdrawn from the study. Specific collection methods were provided in a separate laboratory manual. If applicable, vomit from the stool collection periods of both treatment periods was weighed. A small cloth/linen was weighed and placed under the head of each infant. When the cloth/linen was soiled with vomit, it was removed and re-weighed. If an additional cloth was used to remove vomit from the infant, that cloth was also weighed before and after use. The weight of vomit (total weight minus the weight of the cloth/linen) was recorded on the CRF. All other feed losses, e.g., formula or milk left in bottle, were measured and the amount accounted for in the calculation of the volume of formula consumed at each feeding.
Feces samples, the formula (study 020) and the milk aliquots (study 021) were analyzed by a central laboratory. Individual fatty acids, including the long-chain polyunsaturated fatty acids DHA and AA, were quantified in feces and feed by a gas chromatographic method following extraction by the Folch method. In both studies, the Omegawax 250 column (Supelco) was used for separation of the fatty acids. However, due to co-elution of DHA with nervonic acid (C24:1), which was only present in the breast milk, samples from patients of the per-protocol analysis set from study 021 were also analyzed using a SP-2380 column (Supelco) in order to quantify DHA for those samples from study 021. […] Total lipids were calculated as the sum of the individual fatty acids. (See Section 7.5.1). The same analytical principle was used to determine lipids in each of the batches of formula and aliquots of breast milk used in the study. […]

[1] = BVT.BSSL-021 (pasteurized breast milk), PP
[2] = BVT.BSSL-021 (pasteurized breast milk), PP, 72-hour collection period
[3] = BVT.BSSL-021 Pasteurized milk, PP
[4] = combined analysis, PP, post hoc
[5] = combined data, PP, 72-hour collection, rhBSSL (N = 46)

B1: rhBSSL: recombinant human bile-salt-stimulated lipase, SEQ ID. NO. 1, expressed from recombinant CHO cells; used in both clinical trials (protein, listed as Homo sapiens)
chain: AKLGAVYTEGGFVEGVNKKLGLLGDSVDIFKGIPFAAPTKALENPQPHPGWQGTLKAKNFKKRCLQATITQDSTYGDEDCLYLNIWVPQGRKQVSRDLPVMIWIYGGAFLMGSGHGANFLNNYLYDGEEIATRGNVIVVTFNYRVGPLGFLSTGDANLPGNYGLRDQHMAIAWVKRNIAAFGGDPNNITLFGESAGGASVSLQTLSPYNKGLIRRAISQSGVALSPWVIQKNPLFWAKKVAEKVGCPVGDAARMAQCLKVTDPRALTLAYKVPLAGLEYPMLHYVGFVPVIDGDFIPADPINLYANAADIDYIAGTNNMDGHIFASIDMPAINKGNKKVTEEDFYKLVSEFTITKGLRGAKTTFDVYTESWAQDPSQENKKKTVVDFETDVLFLVPTEIALAQHRANAKSAKTYAYLFSHPSRMPVYPKWVGADHADDIQYVFGKPFATPTGYRPQDRTVSKAMIAYWTNFAKTGDPNMGDSAVPTHWEPYTTENSGYLEITKKMGSSSMKRSLRTNFLRYWTLTYLALPTVTDQEATPVPPTGDSEATPVPPTGDSETAPVPPTGDSGAPPVPPTGDSGAPPVPPTGDSGAPPVPPTGDSGAPPVPPTGDSGAPPVPPTGDSGAPPVPPTGDSGAPPVPPTGDAGPPPVPPTGDSGAPPVPPTGDSGAPPVTPTGDSETAPVPPTGDSGAPPVPPTGDSEAAPVPPTDDSKEAQMPAVIRF
CFA for C20:3 n-6 (sum of C20:3 n-6 and C20:3 n-3), Difference (rhBSSL − Placebo) [1]: 8.91* %
CFA for C20:4 n-6 (AA) [1]: 72.10%
CFA for C20:4 n-6 (AA), Difference (rhBSSL − Placebo) [1]: 10.82* %
CFA for C22:6 n-3 (DHA) [1]: 78.49%
CFA for C22:6 n-3 (DHA), Difference (rhBSSL − Placebo) [1]: 4.72* %
CFA for C24:1 [1]: 36.85%
CFA for C24:1, Difference (rhBSSL − Placebo) [1]: 7.68%
Total Amount of Fat in Stool, Maximum [2]: 13.3 g
Total Amount of Fat in Stool, Mean (SD) [2]: 6.16 g and 6.16 (3.550) g
Total Amount of Fat in Stool, Median [2]: 4.99 g
Total Amount of Fat in Stool, Minimum [2]: 0.9 g
Coefficient of absorption of the sum of all LCPUFAs, LS mean [3]: 70.2%
Coefficient of absorption of the sum of all LCPUFAs, LS mean difference (rhBSSL-Placebo) [3]: 8.02%
Coefficient of absorption of the sum of all polyunsaturated fatty acids, LS mean [3]: 70.7%
Coefficient of absorption of the sum of all polyunsaturated fatty acids, LS mean difference (rhBSSL-Placebo) [3]: 6.92%
Coefficient of absorption of the sum of all saturated fatty acids, LS mean [3]: 66.1%
Coefficient of absorption of the sum of all saturated fatty acids, LS mean difference (rhBSSL-Placebo) [3]: 4.36%
Coefficient of absorption of the sum of all unsaturated fatty acids, LS mean [3]: 70.6%
Coefficient of absorption of the sum of all unsaturated fatty acids, LS mean difference (rhBSSL-Placebo) [3]: 5.10%
CFA for C12:0 [4]: 88.86%
CFA for C12:0, Difference (rhBSSL − Placebo) [4]: 2.42%
CFA for C14:0 (myristic acid) [4]: 76.15%
CFA for C14:0 (myristic acid), Difference (rhBSSL − Placebo) [4]: 4.81%
CFA for C16:0 [4]: 55.49%
CFA for C16:0, Difference (rhBSSL − Placebo) [4]: 2.61%
CFA for C18:0 [4]: 44.28%
CFA for C18:0, Difference (rhBSSL − Placebo) [4]: 1.51%
CFA for C18:1 [4]: 73.66%
CFA for C18:1, Difference (rhBSSL − Placebo) [4]: 3.65%
CFA for C18:2 n-6 (linoleic acid) [4]: 77.49%
CFA for C18:2 n-6 (linoleic acid), Difference (rhBSSL − Placebo) [4]: 5.79%
CFA for C18:3 n-3 (alpha-linolenic acid) [4]: 76.31%
CFA for C18:3 n-3 (alpha-linolenic acid), Difference (rhBSSL − Placebo) [4]: 3.66%
Total Amount of Fat in Stool, Maximum [5]: 15.0 g
Total Amount of Fat in Stool, Mean (SD) [5]: 7.50 g and 7.50 (3.635) g
Total Amount of Fat in Stool, Median [5]: 7.05 g
Total Amount of Fat in Stool, Minimum [5]: 0.9 g
Total Amount of Fat in Stool, Mean (SD) (combined data, PP, second column also headed rhBSSL (N = 46), placebo according to b324): 8.36 (4.018) g
Coefficient of Absorption of AA (C20:4 n-6), LS Mean (combined studies 020+021, FAS): 77.60%
Coefficient of Absorption of AA (C20:4 n-6), LS Mean Difference (rhBSSL − Placebo) (combined studies 020+021, FAS): 8.70%
Coefficient of Absorption of AA (C20:4 n-6), Maximum (combined studies 020+021, FAS): 100.0%
Coefficient of Absorption of AA (C20:4 n-6), Mean (SD) (combined studies 020+021, FAS): 77.88 (17.628) %
Coefficient of Absorption of AA (C20:4 n-6), Median (combined studies 020+021, FAS): 81.28%
Coefficient of Absorption of AA (C20:4 n-6), Minimum (combined studies 020+021, FAS): 26.6%
Coefficient of Absorption of DHA (C22:6 n-3), LS Mean (combined studies 020+021, FAS): 77.91%
Coefficient of Absorption of DHA (C22:6 n-3), LS Mean Difference (rhBSSL − Placebo) (combined studies 020+021, FAS): 6.24%
Coefficient of Absorption of DHA (C22:6 n-3), Maximum (combined studies 020+021, FAS): 100.0%
Coefficient of Absorption of DHA (C22:6 n-3), Mean (SD) (combined studies 020+021, FAS): 77.97 (16.251) %
Coefficient of Absorption of DHA (C22:6 n-3), Median (combined studies 020+021, FAS): 81.22%
Coefficient of Absorption of DHA (C22:6 n-3), Minimum (combined studies 020+021, FAS): 26.8%
CFA (overall), LS Mean Difference (rhBSSL − Placebo) (combined studies 020+021, FAS): 3.70%
CFA (overall), Maximum (combined studies 020+021, FAS): 93.2%
CFA (overall), Mean (SD) (combined studies 020+021, FAS): 67.80 (16.663) %
CFA (overall), Median (combined studies 020+021, FAS): 71.09%
CFA (overall), Minimum (combined studies 020+021, FAS): 11.7%
Coefficient of Absorption of AA (C20:4 n-6), LS Mean (combined studies 020+021, PP): 77.36%
Coefficient of Absorption of AA (C20:4 n-6), LS Mean Difference (rhBSSL − Placebo) (combined studies 020+021, PP): 8.63%
Coefficient of Absorption of AA (C20:4 n-6), Maximum (combined studies 020+021, PP): 100.0%
Coefficient of Absorption of AA (C20:4 n-6), Mean (SD) (combined studies 020+021, PP): 78.01 (16.881) %
Coefficient of Absorption of AA (C20:4 n-6), Median (combined studies 020+021, PP): 81.01%
Coefficient of Absorption of AA (C20:4 n-6), Minimum (combined studies 020+021, PP): 26.6%
Coefficient of Absorption of DHA (C22:6 n-3), LS Mean (combined studies 020+021, PP): 79.83%
Coefficient of Absorption of DHA (C22:6 n-3), LS Mean Difference (rhBSSL − Placebo) (combined studies 020+021, PP): 5.80%
Coefficient of Absorption of DHA (C22:6 n-3), Maximum (combined studies 020+021, PP): 100.0%
Coefficient of Absorption of DHA (C22:6 n-3), Mean (SD) (combined studies 020+021, PP): 79.76 (14.075) %
Coefficient of Absorption of DHA (C22:6 n-3), Median (combined studies 020+021, PP): 82.90%
Coefficient of Absorption of DHA (C22:6 n-3), Minimum (combined studies 020+021, PP): 42.2%
CFA (overall), LS Mean Difference (rhBSSL − Placebo) (combined studies 020+021, PP): 3.56%
CFA (overall), Maximum (combined studies 020+021, PP): 93.2%
CFA (overall), Mean (SD) (combined studies 020+021, PP): 69.08% and 69.08 (14.683) %
CFA (overall), Median (combined studies 020+021, PP): 71.83%
CFA (overall), Minimum (combined studies 020+021, PP): 31.2%
Relative increase of overall CFA compared to the LS mean for placebo (combined studies, PP): 5.4%
Relative increase of overall CFA compared to the LS mean for placebo (formula-fed infants (BVT.BSSL-020), PP): 3.1%
